Source: PMC5029092 (Science signaling, 2011)

Tests used:
[1] = molecular target: recombinant human TLR4 and MD2 complex (human, UniProt O00206 24-631; Q9Y6Y9 19-160); assay: MST
recombinant human TLR2 = recombinant human TLR2 (human, UniProt O60603 21-588); assay: MST
recombinant human TLR2, sequence (O60603 21-588): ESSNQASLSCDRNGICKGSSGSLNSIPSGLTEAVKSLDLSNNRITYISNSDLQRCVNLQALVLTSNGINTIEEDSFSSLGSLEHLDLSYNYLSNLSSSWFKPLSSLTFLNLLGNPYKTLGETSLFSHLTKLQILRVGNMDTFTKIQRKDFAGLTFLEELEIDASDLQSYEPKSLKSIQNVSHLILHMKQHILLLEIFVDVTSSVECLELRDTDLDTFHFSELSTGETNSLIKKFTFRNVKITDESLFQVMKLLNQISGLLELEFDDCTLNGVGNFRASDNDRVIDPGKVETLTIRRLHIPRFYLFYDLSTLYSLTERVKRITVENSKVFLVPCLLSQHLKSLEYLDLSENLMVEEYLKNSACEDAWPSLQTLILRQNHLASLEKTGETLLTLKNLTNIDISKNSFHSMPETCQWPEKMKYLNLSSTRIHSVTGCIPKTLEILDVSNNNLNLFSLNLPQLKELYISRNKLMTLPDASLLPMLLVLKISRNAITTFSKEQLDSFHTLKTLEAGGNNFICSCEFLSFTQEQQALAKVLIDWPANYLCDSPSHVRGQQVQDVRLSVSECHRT

recombinant human TLR4 and MD2 complex, sequence (O00206 24-631, chain 1 of 2): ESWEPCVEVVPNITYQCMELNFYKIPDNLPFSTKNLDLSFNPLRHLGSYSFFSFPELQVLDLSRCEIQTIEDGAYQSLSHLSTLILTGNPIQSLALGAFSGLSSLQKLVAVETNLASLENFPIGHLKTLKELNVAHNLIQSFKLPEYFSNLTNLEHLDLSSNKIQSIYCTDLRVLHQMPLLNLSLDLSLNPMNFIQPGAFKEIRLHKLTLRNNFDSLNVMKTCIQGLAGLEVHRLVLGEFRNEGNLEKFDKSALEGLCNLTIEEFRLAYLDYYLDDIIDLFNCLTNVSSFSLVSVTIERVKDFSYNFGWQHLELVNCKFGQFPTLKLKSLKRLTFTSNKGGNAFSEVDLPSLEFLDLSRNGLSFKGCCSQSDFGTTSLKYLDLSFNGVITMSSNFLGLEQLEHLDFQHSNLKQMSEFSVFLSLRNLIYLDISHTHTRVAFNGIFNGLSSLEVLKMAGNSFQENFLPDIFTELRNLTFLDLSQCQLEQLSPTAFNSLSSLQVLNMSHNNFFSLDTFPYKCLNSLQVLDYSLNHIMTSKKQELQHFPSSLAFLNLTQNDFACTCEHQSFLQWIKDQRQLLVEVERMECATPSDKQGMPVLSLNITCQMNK
recombinant human TLR4 and MD2 complex, sequence (Q9Y6Y9 19-160, chain 2 of 2): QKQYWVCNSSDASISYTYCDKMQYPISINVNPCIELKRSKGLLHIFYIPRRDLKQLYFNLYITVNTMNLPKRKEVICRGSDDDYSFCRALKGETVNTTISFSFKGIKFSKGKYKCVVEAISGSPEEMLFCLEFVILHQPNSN

Kd [1]: 0.037 ± 0.005 µM
Kd (recombinant human TLR2): 0.059 ± 0.01 µM
B1: NT-647-labeled human decorin (natural protein, UniProt P07585 31-359, looked up)
chain: DEASGIGPEVPDDRDFEPSLGPVCPFRCQCHLRVVQCSDLGLDKVPKDLPPDTTLLDLQNNKITEIKDGDFKNLKNLHALILVNNKISKVSPGAFTPLVKLERLYLSKNQLKELPEKMPKTLQELRAHENEITKVRKVTFNGLNQMIVIELGTNPLKSSGIENGAFQGMKKLSYIRIADTNITSIPQGLPPSLTELHLDGNKISRVDAASLKGLNNLAKLGLSFNSISAVDNGSLANTPHLRELHLDNNKLTRVPGGLAEHKYIQVVYLHNNNISVVGSSDFCPPGHNTKKASYSGVSLFSNPVQYWEIQPSTFRCVYVRSAIQLGNYK
modifications: fluorophore NT-647 (Monolith NT protein Labeling Kit)
